Literature values as cited in paper PMC4937678, “In Vivo Measurement and Characterization of a Novel Formulation of [^177Lu]-DOTA-Octreotate” (Asia Oceania Journal of Nuclear Medicine and Biology, 2016).
Where two headings read alike, the source gives them in different places.

Source text: Table 4 Comparison of Published Radiation Dose Estimates for Different Formulations of [^177Lu]-DOTA-Octreotate ([3], [7]-[11]) | column: Dose (mGy/MBq)
[1] = 6 subjects, ref Kwekkeboom (2001) [3]
[2] = 10 subjects, value (range), ref Cremonesi (2006) [10]
[3] = 24 subjects, range, ref Sandstrom (2010) [8]

C[C@@H](O)[C@H](NC(=O)[C@@H]1CSSC[C@H](NC(=O)[C@@H](Cc2ccccc2)NC(=O)CN2CCN(CC(=O)[O-])CCN(CC(=O)[O-])CCN(CC(=O)[O-])CC2)C(=O)N[C@@H](Cc2ccc(O)cc2)C(=O)N[C@H](Cc2c[nH]c3ccccc23)C(=O)N[C@@H](CCCCN)C(=O)N[C@@H]([C@@H](C)O)C(=O)N1)C(=O)O.[177Lu+3] [[^177Lu]-DOTA-Octreotate]
Dose, Liver [1]: 0.21 ± 0.08 mGy/MBq
Dose, Red Marrow [1]: 0.07 ± 0.01 mGy/MBq
Dose, Spleen [1]: 2.15 ± 0.39 mGy/MBq
Dose, Liver [2]: 0.18 (0.05 – 0.34) mGy/MBq
Dose, Red Marrow [2]: 0.04 (0.02 – 0.06) mGy/MBq
Dose, Spleen [2]: 0.64 (0.29-2.91) mGy/MBq
Dose, Red Marrow (14 subjects, ref Forrer (2009) [9]): 0.02 ± 0.03 mGy/MBq
Dose, Kidney (range) [3]: (0.32 – 1.67) mGy/MBq
Dose, Liver (range) [3]: (0.13 – 1.10) mGy/MBq
Dose, Spleen (range) [3]: 0.21 – 1.86 mGy/MBq
Dose, Red Marrow (27 subjects, ref Wehrmann (2007) [11]): 0.04 ± 0.02 mGy/MBq
Dose, Spleen (73 subjects, ref Wehrmann (2007) [11]): 1.2 ± 0.5 mGy/MBq
Dose, Kidney (89 subjects, ref Wehrmann (2007) [11]): 0.9 ± 0.3 mGy/MBq
Dose, Kidney (no renal protection, 6 subjects, ref Kwekkeboom (2001) [3]): 1.65 mGy/MBq
Dose, Kidney (with renal protection, 5 subjects, ref Kwekkeboom (2001) [3]): 0.88 mGy/MBq
